Data set [1] concerns the molecule itself. The experiment in a line: non-reducing SDS-PAGE with immunoblot. (In general: Immunoblotting shows a protein as a band on a membrane.)
The target of data set [2] is T1, Peroxiredoxin 6 (PRDX6), native, human kidney (human (endogenous in human kidney)), P30041.
T1 chain: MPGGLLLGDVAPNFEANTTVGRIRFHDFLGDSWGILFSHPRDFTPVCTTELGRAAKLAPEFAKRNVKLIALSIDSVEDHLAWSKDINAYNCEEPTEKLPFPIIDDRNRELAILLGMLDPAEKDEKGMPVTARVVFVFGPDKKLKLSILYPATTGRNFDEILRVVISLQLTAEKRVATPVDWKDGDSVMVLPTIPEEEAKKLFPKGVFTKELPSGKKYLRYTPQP
The experiment in a line: non-reducing SDS-PAGE with immunoblot. To be noted: remark: other sources report otherwise.

Data set [3] deals with the molecule itself. The experiment in a line: non-reducing SDS-PAGE with Coomassie stain.

B1: Peroxiredoxin 6 (PRDX6), native, mouse kidney (natural protein, mouse (endogenous in mouse kidney), UniProt O08709 1-224, looked up)
chain: MPGGLLLGDEAPNFEANTTIGRIRFHDFLGDSWGILFSHPRDFTPVCTTELGRAAKLAPEFAKRNVKLIALSIDSVEDHLAWSKDINAYNGETPTEKLPFPIIDDKGRDLAILLGMLDPVEKDDNNMPVTARVVFIFGPDKKLKLSILYPATTGRNFDEILRVVDSLQLTGTKPVATPVDWKKGESVMVVPTLSEEEAKQCFPKGVFTKELPSGKKYLRYTPQP
With B1, the stoichiometry N (commonly the number of molecules, sites or subunits per partner or assembly) in data set [1] came to 2.

B2: Peroxiredoxin 6 (PRDX6), native, human kidney, P30041 1-224 (natural protein)
chain: MPGGLLLGDVAPNFEANTTVGRIRFHDFLGDSWGILFSHPRDFTPVCTTELGRAAKLAPEFAKRNVKLIALSIDSVEDHLAWSKDINAYNCEEPTEKLPFPIIDDRNRELAILLGMLDPAEKDEKGMPVTARVVFVFGPDKKLKLSILYPATTGRNFDEILRVVISLQLTAEKRVATPVDWKDGDSVMVLPTIPEEEAKKLFPKGVFTKELPSGKKYLRYTPQP
Molecule B2 registered a stoichiometry N in data set [2] of 2.

B3: N-terminal histidine-tagged PRDX6 with cysteine 47 changed to alanine (HisPRDX6-C47A) (natural protein, UniProt P30041 1-224, looked up)
chain: MPGGLLLGDVAPNFEANTTVGRIRFHDFLGDSWGILFSHPRDFTPVATTELGRAAKLAPEFAKRNVKLIALSIDSVEDHLAWSKDINAYNCEEPTEKLPFPIIDDRNRELAILLGMLDPAEKDEKGMPVTARVVFVFGPDKKLKLSILYPATTGRNFDEILRVVISLQLTAEKRVATPVDWKDGDSVMVLPTIPEEEAKKLFPKGVFTKELPSGKKYLRYTPQP
With B3, the “stoichiometry N” value in data set [3] was 2.

The record behind these values is paper PMC4705439 (Kidney international, 2016).
